Assay [1] addresses T1, IscU_(I108M)-(his)6, E. coli IscU with the Ile108Met substitution (E. coli, UniProt P0ACD4 1-128, I108M).
T1 construct: IscU, Fe-S cluster scaffold protein of E. coli K-12 MG1655; coding region amplified from pIscUIM and cloned NdeI/HindIII into pET21a+; the methods say the proteins were mixed with Fe(SO4)2(NH4)2, L-cysteine and DTT; By gel filtration it exists mainly as a dimer; also called IscUIM; His-tagged IscUIM; not shown: His6, C-terminal, kept
The assay can be described thus: co-elution on anion exchange chromatography (QFF); purified His-tagged proteins mixed anaerobically 1:1:1 (144 uM each) for 40 min with 4-fold excess Fe(SO4)2(NH4)2, 10-fold excess L-cysteine, 5 mM DTT in 50 mM Tris-HCl pH 8; loaded on a 1-mL QFF column, eluted with a gradient to 1 M NaCl; fractions analysed by SDS-PAGE; the single proteins elute at lower salt. Conditions: both partners purified.

Assay [2] concerns the target T2, (his)6-IscS, E. coli cysteine desulfurase IscS (E. coli, UniProt P0A6B7 1-404).
T2 construct: IscS, cysteine desulfurase of E. coli; not shown: His6, N-terminal, kept
The description is as above. Conditions: both partners purified.

B1: CyaY-(his)6, E. coli frataxin homolog CyaY (natural protein, UniProt P27838 1-106, looked up)
chain: MNDSEFHRLADQLWLTIEERLDDWDGDSDIDCEINGGVLTITFENGSKIIINRQEPLHQVWLATKQGGYHFDLKGDEWICDRSGETFWDLLEQAATQQAGETVSFR
notes: CyaY, frataxin homolog of E. coli; not shown: His6, C-terminal, kept
Regarding B1, the binding result in assay [1] and in assay [2] was “binds” throughout.

These data come from paper PMC4440780, “Turning Escherichia coli into a Frataxin-Dependent Organism” (PLoS Genetics, 2015).
